The test has as its target T1, DJ‐1 (human (endogenous in HEK‐293)), Q99497.
T1 chain: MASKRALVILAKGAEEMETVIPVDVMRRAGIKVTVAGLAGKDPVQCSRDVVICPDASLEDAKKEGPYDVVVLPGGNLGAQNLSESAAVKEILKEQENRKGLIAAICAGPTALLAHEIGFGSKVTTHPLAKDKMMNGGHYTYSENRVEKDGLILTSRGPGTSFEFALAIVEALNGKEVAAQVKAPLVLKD
Briefly: cross-linking. The settings on record: remark: other sources report otherwise.

B1: DJ‐1, Q99497 1-189 (natural protein)
chain: T1 chain
For the molecule B1, the stoichiometry N stood at 2.

The values above are taken from PMC8246987.
